These results are taken from the supplement of paper PMC10598134.

± gives the standard deviation.

The series in a line: collision cross section of modified peptide (TIMS, N2, iRT-aligned); higher = larger / more extended gas-phase ion. The method in brief:
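Synthetic peptide pools (~100 fmol/µL in 2% acetonitrile/0.1% formic acid, iRT standard spiked 1:40) were separated on a 120-min nanoflow C18 gradient at 60 °C. They were analysed on a timsTOF Pro/HT (dda-PASEF, nitrogen, ~2.4 mbar) and identified with MaxQuant. 1/K0 was calibrated with three reference ions and aligned run-wise to the median iRT peptide deviation. Collision cross section came from the Mason-Schamp equation, averaging 1–3 technical replicates of the most abundant feature per charge state.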

Where [1] appears, read: charge state: 2, modification: Methyl (K).
Where [2] appears, read: charge state: 3, modification: Methyl (K).
Setting [3] is: charge state: 2, modification: Propionyl.
Where [4] appears, read: charge state: 2, modification: Citrullination (R).
[5] abbreviates: charge state: 3, modification: Citrullination (R).
Where [6] appears, read: charge state: 2, modification: Butyryl.
[7] abbreviates: charge state: 3, modification: Butyryl.
[8] abbreviates: charge state: 2, modification: Hydroxyproline.
[9] abbreviates: charge state: 2, modification: Nitro (Y).
Where [10] appears, read: charge state: 3, modification: Nitro (Y).
Where [11] appears, read: charge state: 3, modification: Trimethyl (K).
[12] abbreviates: charge state: 2, modification: Malonyl.
The mark [13] stands for this setting: charge state: 2, modification: Crotonyl.
Setting [14] is: charge state: 2, modification: hydroxyisobutyryl.
[15] abbreviates: charge state: 3, modification: hydroxyisobutyryl.
Setting [16] is: charge state: 2, modification: HexNAc (ST).
Where [17] appears, read: charge state: 2, modification: GlyGly (K).
The mark [18] stands for this setting: charge state: 3, modification: GlyGly (K).
Where [19] appears, read: charge state: 2, modification: Succinyl.
Setting [20] is: charge state: 3, modification: HexNAc (ST).
[21] abbreviates: charge state: 3, modification: Dimethyl (K).

In the case of “SLGEPAAGEGSAKR [_SLGEPAAGEGSAK(Methyl (K))R_]”, the collision cross section runs as follows: under setting [1], 408.5 ± 0.81 Å²; under setting [2], 480.43 ± 2.6 Å².
“SGKFTQQDIDEAK [_SGK(Propionyl)FTQQDIDEAK_]” gave a collision cross section under setting [3] of 414.71 ± 0.97 Å².
Take “GGPGGELPRGPQAGLGPR [_GGPGGELPR(Citrullination (R))GPQAGLGPR_]”: the collision cross section is listed as 413.18 ± 0.98 Å² under setting [4] and 502.3 ± 0.77 Å² under setting [5].
Consider VGTASVLQPVKK [_VGTASVLQPVK(Biotin)K_], for which the collision cross section (charge state: 2, modification: Biotin) was found to be 406.39 ± 1.1 Å².
For the sequence DVNAAIAAIKTK [_DVNAAIAAIK(Butyryl)TK_], the collision cross section is recorded as 406.92 ± 0.23 Å² under setting [6] and 469.41 Å² under setting [7].
On to “GDIGETGVPGAEGPR [_GDIGETGVPGAEGP(Hydroxyproline)R_]”, for which, under setting [8], the collision cross section is 384.38 ± 0.27 Å².
Still for that read-out and setting: the same measure for “LGVPGLPGYPGR [_LGVPGLPGYP(Hydroxyproline)GR_]”: 362.53 ± 0.8 Å².
Take “AGPNASIISLKSDK [_AGPNASIISLK(Propionyl)SDK_]”: the collision cross section under setting [3] was 409.61 ± 0.38 Å².
Consider “LQDVSGQLSSSKK [_LQDVSGQLSSSK(Methyl (K))K_]”, for which the collision cross section reads like this: under setting [1], 404.82 ± 1.9 Å²; under setting [2], 465.49 ± 8.7 Å².
Regarding “GKLGVPGLPGYPGR [_GKLGVP(Hydroxyproline)GLPGYPGR_]”, the collision cross section runs as follows: under setting [8], 384.86 ± 0.79 Å²; (charge state: 3, modification: Hydroxyproline) 481 ± 2.9 Å².
As to VETTVTSLKTK [_VETTVTSLK(Methyl (K))TK_], the collision cross section is, setting by setting: under setting [1], 381.5 ± 1.8 Å²; under setting [2], 455.24 ± 7.2 Å².
“HHAAYVNNLNVTEEK [_HHAAY(Nitro (Y))VNNLNVTEEK_]”: the collision cross section reads like this: under setting [9], 438.46 Å²; under setting [10], 499.02 ± 3.6 Å².
Turning to “LEENHYNTYISK [_LEENHYNTY(Nitro (Y))ISK_]”, the collision cross section is 425.11 ± 1.1 Å² under setting [9] and 478.71 ± 0.24 Å² under setting [10].
PSVSTKLISK [_PSVSTK(Propionyl)LISK_]: the collision cross section under setting [3] worked out at 354.68 ± 0.33 Å².
The same measure, in the same setting: the same measure for “SNEEGSEEKGPEVR [_SNEEGSEEK(Propionyl)GPEVR_]”: 404.8 ± 1.3 Å².
As to “PSVGSQSNQAGQGKR [_PSVGSQSNQAGQGK(Methyl (K))R_]”, the collision cross section was determined as 426.09 ± 2.3 Å² under setting [1] and 471.73 ± 2.8 Å² under setting [2].
Turning to “KFGVLSDNFK [_K(Trimethyl (K))FGVLSDNFK_]”, the collision cross section is, setting by setting: (charge state: 2, modification: Trimethyl (K)) 372.9 ± 0.61 Å²; under setting [11], 457.56 Å².
For ITGKNQVTATK [_ITGK(Malonyl)NQVTATK_], under setting [12], the collision cross section came out at 362.15 ± 0.018 Å².
The sequence “DTGEKLTVAENEAETK [_DTGEK(Crotonyl)LTVAENEAETK_]” had a collision cross section under setting [13] of 449.13 ± 0.83 Å².
Regarding “VFIGNLNTLVVKKK [_VFIGNLNTLVVK(Trimethyl (K))KK_]”, the collision cross section under setting [11] was determined as 488.61 ± 1.1 Å².
For “GADFLVTEVENGGSLGSKK [_GADFLVTEVENGGSLGSK(Methyl (K))K_]”, the collision cross section by setting is: under setting [1], 494.56 Å²; under setting [2], 538.26 Å².
For the sequence “VTPHPSPRGSPLPTPK [_VTPHPSPR(Citrullination (R))GSPLPTPK_]”, the collision cross section runs as follows: under setting [4], 409.96 ± 0.55 Å²; under setting [5], 504.78 ± 11 Å².
AIQLNPSYIR [_AIQLNPSY(Phospho (Y))IR_] returned a collision cross section (charge state: 2, modification: Phospho (Y)) of 384.89 ± 0.65 Å².
Turning to KFGVLSDNFK [_K(Crotonyl)FGVLSDNFK_], the collision cross section under setting [13] was 376.47 ± 0.8 Å².
RGATPPAPPR [_R(Methyl (R))GATPPAPPR_] returned a collision cross section (charge state: 2, modification: Methyl (R)) of 338.68 ± 2.1 Å² and a collision cross section (charge state: 3, modification: Methyl (R)) of 463.88 ± 2.9 Å².
“TPNLYIYSKK [_TPNLYIYSK(Gluratylation)K_]” displayed a collision cross section (charge state: 2, modification: Glutarylation) of 398.57 ± 0.6 Å² and a collision cross section (charge state: 3, modification: Glutarylation) of 451.21 ± 1.7 Å².
Regarding LDEKENLSAK [_LDEK(Butyryl)ENLSAK_], under setting [6], the collision cross section is listed as 370.93 ± 0.84 Å².
Regarding “SSGPGGQNVNKVNSK [_SSGPGGQNVNK(hydroxyisobutyryl)VNSK_]”, the collision cross section is 407.53 ± 1.1 Å² under setting [14] and 447.88 ± 1.1 Å² under setting [15].
For “DDSFLGKLGGTLAR [_DDSFLGK(Butyryl)LGGTLAR_]”, the collision cross section is reported as 417.41 ± 0.39 Å² under setting [6] and 492.3 ± 2.4 Å² under setting [7].
MFLSFPTTK [_MFLS(HexNAc (ST))FPTTK_] yielded a collision cross section under setting [16] of 373.63 ± 0.17 Å².
Regarding “GEVGAGAGPGAQAGPSAKR [_GEVGAGAGPGAQAGPSAK(Trimethyl (K))R_]”, under setting [11], the collision cross section was found to be 489.76 ± 5.2 Å².
With “LGVATVAKGVCGACK [_LGVATVAK(hydroxyisobutyryl)GVCGACK_]”, the collision cross section under setting [14] is reported as 419.46 ± 1.2 Å².
GSLEKGSPEDK [_GSLEK(Methyl (K))GSPEDK_] returned a collision cross section under setting [1] of 357.31 ± 0.34 Å² and a collision cross section under setting [2] of 434.75 ± 5.3 Å².
As to “SRGAIISQYYNR [_SR(Citrullination (R))GAIISQYYNR_]”, the collision cross section reads like this: under setting [4], 408.9 ± 1.3 Å²; under setting [5], 483.76 Å².
Consider TLDEILQEKK [_TLDEILQEK(Formyl)K_], for which the collision cross section (charge state: 2, modification: Formyl) was 372.98 ± 1.9 Å².
As for TLDEILQEKK [_TLDEILQEK(Crotonyl)K_], the collision cross section is, setting by setting: under setting [13], 381.71 ± 0.8 Å²; (charge state: 3, modification: Crotonyl) 444.38 ± 1.6 Å².
The sequence ASCLYGQLPK [_ASCLY(Nitro (Y))GQLPK_] displayed a collision cross section under setting [9] of 365.43 ± 2.1 Å².
Take “IVSGKDYNVTANSK [_IVSGK(GlyGly (K))DYNVTANSK_]”: the collision cross section by setting is: under setting [17], 423.62 ± 2 Å²; under setting [18], 476.53 ± 2.2 Å².
Under setting [19], LEEVTGKLQVAR [_LEEVTGK(Succinyl)LQVAR_] came in with a collision cross section of 394.87 ± 0.77 Å².
Turning to “VNVEAPDVNLEGLGGKLK [_VNVEAPDVNLEGLGGK(Butyryl)LK_]”, the collision cross section reads like this: under setting [6], 466.95 ± 0.75 Å²; under setting [7], 548.3 ± 0.14 Å².
FDDTNPEKEEAK [_FDDTNPEK(Malonyl)EEAK_] gave a collision cross section under setting [12] of 398.04 ± 0.6 Å².
Under setting [19], “SNEEGSEEKGPEVR [_SNEEGSEEK(Succinyl)GPEVR_]” displayed a collision cross section of 403.42 ± 0.55 Å².
For “ASDTSSETVFGKR [_ASDTSSETVFGK(Methyl (K))R_]”, the collision cross section runs as follows: under setting [1], 406.57 ± 1.3 Å²; under setting [2], 477.14 ± 3.8 Å².
Turning to “DASTLQSQKAEGTGDAK [_DASTLQSQK(Propionyl)AEGTGDAK_]”, the collision cross section under setting [3] worked out at 434.77 ± 2.9 Å².
Under setting [20], “ELANFDPSRPGPPSGR [_ELANFDPS(HexNAc (ST))RPGPPSGR_]” yielded a collision cross section of 503.12 ± 0.18 Å².
On to LQLEIDQKK [_LQLEIDQK(Dimethyl (K))K_], for which the collision cross section is, setting by setting: (charge state: 2, modification: Dimethyl (K)) 364.14 ± 0.52 Å²; under setting [21], 427.16 ± 2.1 Å².
Under setting [4], “SGRGGNFGFGDSR [_SGR(Citrullination (R))GGNFGFGDSR_]” came in with a collision cross section of 379.38 ± 0.54 Å².
Take “AAQASDLEKIHLDEK [_AAQASDLEK(Butyryl)IHLDEK_]”: the collision cross section reads like this: under setting [6], 463.03 ± 1.1 Å²; under setting [7], 499.42 ± 2.9 Å².
“VDIDVPDVNIEGPDAKLK [_VDIDVPDVNIEGPDAK(Dimethyl (K))LK_]” had a collision cross section under setting [21] of 550.04 ± 1.1 Å².
With “VPTTEKPTVTVNFR [_VPTTEK(Methyl (K))PTVTVNFR_]”, the collision cross section runs as follows: under setting [1], 426.88 Å²; under setting [2], 510.49 ± 2 Å².
Where the note is “charge state: 3, modification: Propionyl”, “VNIGQGSHPQKVK [_VNIGQGSHPQK(Propionyl)VK_]” registered a collision cross section of 485.17 ± 0.74 Å².
As for ALLQAKASGK [_ALLQAK(Methyl (K))ASGK_], the collision cross section reads like this: under setting [1], 342.45 ± 0.79 Å²; under setting [2], 423.28 ± 5 Å².
Sequence TTEETSKPK [_TTEETSK(Acetyl (K))PK_] registered a collision cross section (charge state: 2, modification: Acetyl (K)) of 334.91 ± 0.21 Å².
Take “VPTTEKPTVTVNFR [_VPTTEK(hydroxyisobutyryl)PTVTVNFR_]”: the collision cross section runs as follows: under setting [14], 429.55 ± 0.83 Å²; under setting [15], 512.54 ± 2 Å².
As to “VQGGALEDSQLVAGVAFKK [_VQGGALEDSQLVAGVAFK(GlyGly (K))K_]”, the collision cross section under setting [17] came to 504.45 ± 0.061 Å² and the collision cross section under setting [18] came out at 565.73 ± 1.7 Å².
For the sequence “LSTPPPLAEEEGLASR [_LS(HexNAc (ST))TPPPLAEEEGLASR_]”, the collision cross section by setting is: under setting [16], 448.88 Å²; under setting [20], 503.24 Å².
Regarding “ISSNFSSIIAEKLR [_ISSNFSSIIAEK(GlyGly (K))LR_]”, the collision cross section under setting [17] is 443.53 ± 6.7 Å² and the collision cross section under setting [18] came to 502.71 ± 1.1 Å².
As to “FSAYIKNSNPALNDNLEK [_FSAYIK(Dimethyl (K))NSNPALNDNLEK_]”, the collision cross section under setting [21] was 510.58 ± 2.9 Å².
